Measurements taken from doi:10.1101/2022.01.16.476467.
Each block holds one substance with its values, some of them ahead of it.

Molecular target: CASK_CAMK domain (residues 1-345) (Mus musculus) (UniProt O70589)
Assay: ITC

fold decrease of the interaction against wild-type Caskin1: 9 fold
Substance: Caskin1 CID L378T (domain or fragment)

fold decrease of the binding against wild-type Caskin1: 40 fold
Substance: Caskin1 CID L378T/R379H (domain or fragment)

fold increase in the binding affinity against wild-type LiprinA2: 9 fold
Substance: LiprinA2 CID G977E and H983R (domain or fragment)

Kd: 6.94 µM
stoichiometry N: 1
Substance: reported Caskin1 peptide
